{"source": "patent US20240190990A1", "about": "(BEIGENE SWITZERLAND, published 2024)", "binders": {"B1": {"name": "BGA113 (antibody, human IgG1, V domains shown)", "VH": "QVQLVQSGAEVKKPGASVKVSCKASGYIFTSYYLHWVRQAPGQGLEWIGYINPQTGYTSYAQKFQGRVTMTRDTSTSTVYMELSSLRSEDTAVYYCAREYGNYNYPLDYWGQGTLVTVSS", "VL": "DIQMTQSPSSLSASVGDRVTITCRASENQYGYLAWYQQKPGKVPKLLIYNYKNLVEGVPSRFSGSGSGTDFTLTISSLQPEDVATYYCQHHLGTPYTFGQGTKVEIK", "notes": "W33Y (VH), T51Y (VL) on BGA131F-ph-M; wild-type human IgG1 format"}, "B2": {"name": "BGA113K (antibody, human IgG1, V domains shown)", "VH": "B1 VH with Y57K", "VL": "B1 VL", "notes": "BGA113 with Y57K in the heavy chain; generated in human IgG1 format; also called BGA113 variant Y57K; Y57K"}, "B3": {"name": "BGA131F (antibody, human IgG1, V domains shown)", "VH": "B1 VH with Y33W", "VL": "B1 VL with Q29I, Y51A, L92Y", "notes": "BGA131 with N54Q, N59S, S61A in VH; human IgG1 / kappa format"}, "B4": {"name": "BGA131F-ph-M (antibody, V domains shown)", "VH": "B1 VH with Y33W", "VL": "B1 VL with Y51T", "notes": "BGA13-1F heavy chain with a selected kappa light chain, IgG; also called BGA1311F-ph-M"}, "B5": {"name": "BGA13 (antibody, V domains shown)", "VH": "QVQLQQSGAELAKSGASVKMSCKASGYIFTSYWLHWVKQRPGQGLEWIGYINPNTGYTNYSQKFKDKATLTADKSSSTAYMQLSSLTSEDSAVYYCAREYGNYNYPLDYWGQGTSVTVSS", "VL": "DIQMTQSPASLSASVGETVTITCRASENIYGYLAWYQQKQGKSPQLLVFNAKNLVEGVPSRFSGSGSGTQFSLKINSLQPEDFGSYYCQHHYGTPYTFGGGTKLEIK", "notes": "murine monoclonal IgG purified from hybridoma supernatant; also called murine anti-CEA antibody BGA13"}}, "key": {"[1]": {"target": "T1, full-length human CEA on cells (human, UniProt P06731 35-685)", "T1 sequence": "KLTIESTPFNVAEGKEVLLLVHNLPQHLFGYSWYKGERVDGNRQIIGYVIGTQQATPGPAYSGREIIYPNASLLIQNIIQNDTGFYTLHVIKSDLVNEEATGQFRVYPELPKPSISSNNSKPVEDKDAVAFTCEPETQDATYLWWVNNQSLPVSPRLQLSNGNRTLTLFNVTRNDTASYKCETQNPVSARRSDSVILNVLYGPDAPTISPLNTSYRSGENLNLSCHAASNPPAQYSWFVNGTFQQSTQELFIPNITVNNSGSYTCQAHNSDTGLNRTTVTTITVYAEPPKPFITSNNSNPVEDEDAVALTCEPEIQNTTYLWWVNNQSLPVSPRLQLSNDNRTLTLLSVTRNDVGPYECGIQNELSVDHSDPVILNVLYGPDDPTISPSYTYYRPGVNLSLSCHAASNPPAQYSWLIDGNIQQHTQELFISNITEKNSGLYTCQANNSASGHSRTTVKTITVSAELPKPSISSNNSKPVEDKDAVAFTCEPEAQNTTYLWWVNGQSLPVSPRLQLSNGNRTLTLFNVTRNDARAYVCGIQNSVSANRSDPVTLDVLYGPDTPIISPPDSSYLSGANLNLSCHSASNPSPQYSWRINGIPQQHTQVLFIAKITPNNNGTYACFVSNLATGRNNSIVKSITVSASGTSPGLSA", "assay": "cell-based or functional assay"}, "[2]": {"target": "T1, full-length human CEA on cells", "assay": "flow cytometry on LOVO cells, Alexa Fluor 647 anti-human IgG Fc", "method": "For this experiment, anti-human IgG (Fc) antibody was immobilized on an activated CM5 biosensor chip (Cat. No. BR100839, GE Life Sciences). Anti-CEA antibodies were flowed over the chip surface and captured by anti-human Fab antibody. […] For flow cytometry, CEA-expressing cells (10⁵ cells/well) were incubated with various concentrations of purified affinity-matured antibodies, followed by binding with Alexa Fluro-647-labeled anti-hu IgG Fc antibody (Cat. No. 409320, BioLegend, USA). Cell fluorescence was quantified using a flow cytometer (Guava easyCyte™ 8HT, Merck-Millipore, USA). The equilibrium dissociation constant (KD) was calculated as the ratio koff/kₒₙ."}, "[3]": {"target": "T1, full-length human CEA on cells", "assay": "flow cytometry on MKN45 cells, Alexa Fluor 647 anti-human IgG Fc", "method": "For flow cytometry, CEA-expressing MKN45 cells (10⁵ cells/well) were incubated with various concentrations of purified affinity-matured antibodies, followed by binding with Alexa Fluro-647-labeled anti-hu IgG Fc antibody (Cat. No. 409320, BioLegend, USA). Cell fluorescence was quantified using a flow cytometer (Guava easyCyte™ 8HT, Merck-Millipore, USA)."}, "[4]": {"target": "T2, CEACAM7 on transfected HEK293 cells (human, UniProt Q14002 36-242)", "T2 sequence": "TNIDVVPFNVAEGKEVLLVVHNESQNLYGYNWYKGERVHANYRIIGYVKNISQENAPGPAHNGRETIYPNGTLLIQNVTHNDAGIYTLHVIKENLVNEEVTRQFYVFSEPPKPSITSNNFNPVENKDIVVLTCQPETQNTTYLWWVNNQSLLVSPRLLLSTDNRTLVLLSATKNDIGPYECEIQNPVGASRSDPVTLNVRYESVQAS", "assay": "flow cytometry on transiently transfected HEK293 cells, Alexa Fluor 647 anti-human IgG Fc [panel B]", "method": "(§1) Cell fluorescence was quantified using a flow cytometer (Guava easyCyte™ 8HT, Merck-Millipore, USA). For antigen ELISA, CEACAM1(SEQ ID NO:64) (Cat. No. 10822-H08H, Sino Biological, China), CHIM (SEQ ID NO: 63), CEA (SEQ ID NO:55) or CEACAM6 (SEQ ID NO:57) were coated in 96-well plates at a concentration of 10 μg/ml overnight at 4° C. The HRP-linked anti-human Fc (Fc specific) IgG antibody (Cat. No. A0170, Sigma, USA) and substrate (Cat. No. 00-4201-56, eBioscience, USA) were used for development, and absorbance signal at the wavelength of 450 nm was measured using a plate reader (SpectraMax Paradigm, Molecular Devices, USA)."}, "[5]": {"target": "T3, CEACAM8 on transfected HEK293 cells (human, UniProt P31997 35-320)", "T3 sequence": "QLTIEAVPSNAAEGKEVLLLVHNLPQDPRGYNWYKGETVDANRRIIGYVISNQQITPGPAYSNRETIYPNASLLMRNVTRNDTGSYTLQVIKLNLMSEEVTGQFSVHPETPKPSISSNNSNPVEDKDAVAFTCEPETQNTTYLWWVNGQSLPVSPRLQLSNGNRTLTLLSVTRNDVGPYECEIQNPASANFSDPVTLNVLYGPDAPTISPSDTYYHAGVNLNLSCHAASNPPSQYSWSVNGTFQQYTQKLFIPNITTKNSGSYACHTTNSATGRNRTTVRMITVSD", "assay": "flow cytometry on transiently transfected HEK293 cells, Alexa Fluor 647 anti-human IgG Fc [panel B]", "method": "as §1"}, "[6]": {"target": "T4, BSA (Bos taurus, UniProt P02769)", "T4 construct": "coated on the ELISA plate as negative control antigen; also called bovine serum albumin", "T4 sequence (P02769 25-607 limits assumed)": "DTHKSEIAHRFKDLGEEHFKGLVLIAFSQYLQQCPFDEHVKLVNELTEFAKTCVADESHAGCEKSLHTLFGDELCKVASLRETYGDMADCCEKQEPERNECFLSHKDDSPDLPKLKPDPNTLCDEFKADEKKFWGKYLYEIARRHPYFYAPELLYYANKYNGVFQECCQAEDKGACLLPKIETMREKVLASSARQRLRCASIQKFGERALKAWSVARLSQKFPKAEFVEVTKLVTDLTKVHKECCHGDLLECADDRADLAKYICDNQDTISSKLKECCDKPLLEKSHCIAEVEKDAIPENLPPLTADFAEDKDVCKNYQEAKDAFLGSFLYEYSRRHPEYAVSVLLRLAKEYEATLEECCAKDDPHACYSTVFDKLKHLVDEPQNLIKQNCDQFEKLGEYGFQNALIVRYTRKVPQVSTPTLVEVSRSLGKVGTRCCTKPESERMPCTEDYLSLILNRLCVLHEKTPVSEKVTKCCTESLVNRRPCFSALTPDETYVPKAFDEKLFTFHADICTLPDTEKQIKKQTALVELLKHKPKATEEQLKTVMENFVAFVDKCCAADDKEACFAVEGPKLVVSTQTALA", "assay": "antigen ELISA: antigen coated at 10 ug/ml, HRP anti-mouse IgG [panel B]", "method": "For this experiment, sCEA, CHIM, monkey CEA, CEA-v and BSA were coated in 96-well plates at a high concentration of 10 μg/ml overnight at 4° C. […] The HRP-linked anti-mouse IgG antibody (Cat. No. 7076S, Cell Signaling Technology, USA) and substrate (Cat. No. 00-4201-56, eBioscience, USA) were used for development, and absorbance signal at the wavelength of 450 nm was measured using a plate reader (SpectraMax Paradigm, Molecular Devices, USA)."}}, "note": "Numbering of substitutions follows the chain as printed. Names may count otherwise.", "data": [{"binder": "B1", "values": [{"measurement": "ADCC (LDH release), EC50", "setting": "[1]", "value": "~0.0067", "unit": "µg/mL"}, {"measurement": "EC50 (read off the curve)", "setting": "[2]", "value": "~1", "unit": "nM"}]}, {"binder": "B2", "values": [{"measurement": "EC50 (read off the curve)", "setting": "[3]", "value": "~0.5", "unit": "µg/mL"}, {"measurement": "binding result", "setting": "[4]", "value": "no binding (tested: 2 ug/ml (from paragraph 184; not on the sheet))"}, {"measurement": "binding result", "setting": "[5]", "value": "no binding (tested: 2 ug/ml (from paragraph 184; not on the sheet))"}]}, {"binder": "B3", "values": [{"measurement": "EC50 (read off the curve)", "setting": "[2]", "value": "~6", "unit": "nM"}]}, {"binder": "B4", "values": [{"measurement": "EC50 (read off the curve)", "setting": "[2]", "value": "~5", "unit": "nM"}]}, {"binder": "B5", "values": [{"measurement": "binding result", "setting": "[6]", "value": "no binding"}]}]}
